{"source": "patent US20260055202A1", "about": "(TEXAS A AND M UNIVERSITY SYSTEM, published 2026)", "binders": {"B1": {"name": "AC11 (chicken-derived anti-hCD20 mAb, chicken-human chimeric) (antibody, human IgG1, V domains shown)", "VH": "AVTLDESGGGLQTPGGALSLVCKASGFDFSSSYINWVRQAPGKGLEYVAQINKDGGGSWYAPVVKGRATISRDNGQSTVRLQLSNLRAEDTGIYFCAKNADSGCVGVGGCIDTWGHGTEVIVSS", "VL": "ALTQPSSVSANPGETVKITCSGGSYYYGGNYYYGWYQQKSPGSAPVTLIYNNNKRPSDIPSRFSGSTSGSTGTLTITGVQADDEAVYYCGGYDSSYVAIFGAGTTLTVL", "modifications": "Atto 488 NHS-ester label on lysines in the direct immunofluorescence and mCD20 assays (positions not defined)", "notes": "Chicken VH fused to human CH1 and CH2-CH3 of human IgG1; chicken VL fused to human kappa constant domain; made in Expi293F cells; also called chAC11; parental AC11"}, "B2": {"name": "AC1 (chicken-derived anti-hCD20 mAb, chicken-human chimeric) (antibody, human IgG1, V domains shown)", "VH": "AVTLDESGGGLQTPGGGLSLVCKASGFDFSSYAMVWVRQAPGKGLEYVGEITNYAAGSGTWYGAAVKGRATISRDNGQSTVRLQLNNLRAEDTATYYCAKGPISGSIGYLSSIDAWGHGTEVIVSS", "VL": "ALTQPSSVSANPGETVKITCSGGSSRYGYGWYQQKSPGSAPVTVIYWNDKRPSDIPSRFSGSKSGSTGTLTITGVRAEDEAVYYCGNYDNNDPAFGAGTTLTVL", "modifications": "Atto 488 NHS-ester label on lysines in the direct immunofluorescence and mCD20 assays (positions not defined)", "notes": "Chicken VH fused to human CH1 and CH2-CH3 of human IgG1; chicken VL fused to human kappa constant domain; made in Expi293F cells; also called chAC1"}, "B3": {"name": "hAC11-10 (humanized variant of mAb AC11) (antibody, V domains shown)", "VH": "EVQLVESGGGLVQPGGSLRLSCKASGFTFSSSYINWVRQAPGKGLEYVAQINKDGGGSWYAPVVKGRFTISRDNAKNTVYLQMNSLRAEDTAVYYCAKNADSGCVGVGGCIDTWGQGTTVTVSS", "VL": "SYELTQPSSVSVSPGQTVRITCSGGSYYYGGNYYYGWYQQKPGQAPVTVIYNNNKRPSGIPERFSGSNSGNTGTLTISGVQAEDEADYYCGGYDSSYVAIFGGGTKLTVL", "notes": "Humanized variable regions; constant regions not restated for this variant (the parental format is human IgG1 with a human kappa constant domain)"}, "B4": {"name": "Rituximab (antibody, V domains shown)", "VH": "QVQLQQPGAELVKPGASVKMSCKASGYTFTSYNMHWVKQTPGRGLEWIGAIYPGNGDTSYNQKFKGKATLTADKSSSTAYMQLSSLTSEDSAVYYCARSTYYGGDWYFNVWGAGTTVTVSA", "VL": "QIVLSQSPAILSASPGEKVTMTCRASSSVSYIHWFQQKPGSSPKPWIYATSNLASGVPVRFSGSGSGTSYSLTISRVEAEDAATYYCQQWTSNPPTFGGGTKLEIK"}, "B5": {"name": "ACR7 (chicken-derived anti-hCD20 mAb, chicken-human chimeric) (antibody, human IgG1, V domains shown)", "VH": "AVTLDESGGGLQTPGGALSLVCKASGFTFNSNGMGWVRQAPGKGLEWVAGIHSSGRYTYYGTAVKGRATISRDNGQSTVRLQLNDLRAEDTATYYCAKNADSAYGYWYAGSIDAWGHGTEVIVSS", "VL": "ALTQPSSVSANLGGTVEITCSGGYSSYGYSWHQQKSPASAPVTLIYNNNNRPSDIPSRFSGSASGSTATLTITGVQAEDEAVYYCAFTDYSSLAGVFGAGTTLTVL", "modifications": "Atto 488 NHS-ester label on lysines in the direct immunofluorescence and mCD20 assays (positions not defined)", "notes": "Chicken VH fused to human CH1 and CH2-CH3 of human IgG1; chicken VL fused to human kappa constant domain; made in Expi293F cells; also called chACR7"}, "B6": {"name": "ACR8 (chicken-derived anti-hCD20 mAb, chicken-human chimeric) (antibody, human IgG1, V domains shown)", "VH": "AVTLDESGGGLQTPGGALSLVCKASGFSFDRHGMFWVRQAPGKGLEWVAGIRSTGSYPKYGPAVKGRATISRDNGQSTVRLQLNNLRAEDTARYFCVRNVYIGDYDGDSIDAWGHGTEVIVSS", "VL": "ALTQPSSVSANLGGTVEITCSGSSSGYGSYYGWYQQKSPGSAPVTVIYENTNRPSNIPSRFSGSESGSTATLTITGVQAEDEAVYFCGSADDSGNSAIFGAGTTLTVL", "modifications": "Atto 488 NHS-ester label on lysines in the direct immunofluorescence and mCD20 assays (positions not defined)", "notes": "Chicken VH fused to human CH1 and CH2-CH3 of human IgG1; chicken VL fused to human kappa constant domain; made in Expi293F cells; also called chACR8"}}, "key": {"[1]": {"target": "T1, human CD20 on Raji B lymphoma cells (human, UniProt P11836 1-297)", "T1 sequence (looked up)": "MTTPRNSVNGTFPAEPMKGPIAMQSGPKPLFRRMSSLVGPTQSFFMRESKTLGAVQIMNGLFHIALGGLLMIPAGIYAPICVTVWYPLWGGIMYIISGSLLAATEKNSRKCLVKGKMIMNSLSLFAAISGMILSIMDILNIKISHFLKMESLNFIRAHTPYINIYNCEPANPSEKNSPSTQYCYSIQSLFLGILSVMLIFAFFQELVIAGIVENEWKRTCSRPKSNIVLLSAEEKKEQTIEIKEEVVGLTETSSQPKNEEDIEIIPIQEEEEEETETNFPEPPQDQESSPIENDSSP", "experiment": "cell-based or functional assay"}, "[2]": {"target": "T2, mouse CD20 on transfected HEK293T cells (mouse, UniProt P19437 1-291)", "T2 construct": "whole, on cells; Expressed from pCMV5 mCD20 in HEK293T cells; also called mCD20; MS4A1", "T2 sequence (looked up)": "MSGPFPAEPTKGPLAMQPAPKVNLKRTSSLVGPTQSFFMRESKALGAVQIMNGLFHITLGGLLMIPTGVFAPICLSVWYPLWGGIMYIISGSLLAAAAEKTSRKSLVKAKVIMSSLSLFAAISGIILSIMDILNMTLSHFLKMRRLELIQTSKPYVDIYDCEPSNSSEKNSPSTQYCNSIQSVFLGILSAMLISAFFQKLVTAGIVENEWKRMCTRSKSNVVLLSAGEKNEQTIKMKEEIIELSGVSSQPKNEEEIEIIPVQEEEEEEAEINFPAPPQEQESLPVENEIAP", "experiment": "flow cytometry with Atto 488-labeled Ab on HEK293T cells transfected with pCMV5-mCD20 versus pCMV5 (mock)", "description": "The identity of the Abs is indicated at the top. Anti-mCD20: commercially obtained anti-mCD20 Ab (eBioscience/Thermo Fisher). Data are from one of two independent, representative experiments.\nCross-reactivity of anti-hCD20 mAbs with mouse CD20: HEK293T cells in P100 tissue culture dishes were transfected at 70-90% confluency with […] pCMV5 mCD20 expression plasmid or parental pCMV5 (mock transfection) using jetOPTIMUS (Polyplus-transfection) reagent per the manufacturer's recommended protocol at a 1:1 jetOPTIMUS:DNA (L: g) ratio. Two days post transfection, the supernatant on the transfected cells was aspirated and the cells dislodged by vigorous pipetting with DPBS (HyClone). The cells were pelleted by centrifugation and the buffer replaced with 8 mL chilled blocking buffer (DPBS/10% FBS). The cells were blocked with gentle rocking at 4° C. for 30 minutes. […] of the blocked cells were transferred to individual wells of a conical-bottom 96-well plate and the cells were pelleted by centrifugation prior to incubation with […] of […] A488-labeled anti-hCD20 Abs or […] A488-labeled anti-mouse CD20 Ab (eBioscience/Thermo Fisher) at 4° C. with rocking for 1 hour. The Ab-coated cells were washed three times with cold DPBS/1% BSA and resuspended in […] DPBS/1% BSA prior to flow cytometric analysis in the FITC channel using a BD LSRFortessa X-20 cytometer. Histogram plots were generated with Flowing Software v2.5.1 (University of Turku)."}, "[3]": {"target": "T1, human CD20 on Raji B lymphoma cells", "experiment": "flow cytometry on Raji cells, direct immunofluorescence with A488-labeled Ab, MFI against concentration, 5PL fit [panel A]", "description": "Raji cells were incubated with A488-labeled anti-hCD20 Abs followed by washing and flow cytometric analysis using a BD LSRFortessa X-20 instrument. The median fluorescence intensities (MFIs) of Ab-coated cells were determined using FlowJo software and fitted to an asymmetric sigmoidal 5PL curve using GraphPad Prism. Data are the mean±SD of duplicate measurements and are from one of two independent, representative experiments."}, "[4]": {"target": "T1, human CD20 on Raji B lymphoma cells", "experiment": "flow cytometry on Raji cells, indirect immunofluorescence (Atto 488-labeled anti-human Fc secondary Ab), median fluorescence intensity", "description": "Median fluorescence intensities (MFIs) from histograms calculated using FlowJo software were used to generate the binding curves in FIG. 8. The identity and concentration of the Ab and calculated MFI is shown in the insets of histograms.\n(§1) Binding of anti-hCD20 mAbs to Raji cells: Anti-hCD20 Abs diluted in DPBS/1% bovine serum albumin (BSA) were incubated with 6×10⁵ Raji cells in V-bottom 96-well plates at 4° C. for 1 hour in a final volume of […]. […] Binding of mAbs to live single cells gated by light scatter characteristics was measured using a BD LSRFortessa X-20 flow cytometer. The binding of bacteriophage displaying the Fab portions of the chicken Abs to hCD20-transfected Chinese hamster ovary (CHO) cells was also measured (FIG. 4)."}, "[5]": {"target": "T1, human CD20 on Raji B lymphoma cells", "experiment": "flow cytometry on Raji cells, indirect immunofluorescence (Atto 488-labeled anti-human Fc secondary Ab), MFI against concentration, 5PL fit", "description": "The median fluorescence intensity (MFI) of Ab-coated cells was determined using FlowJo software. Data for the lowest mAb concentration derives from cells incubated with just buffer (no Ab). […] Values are the mean±SD of duplicate measurements.\nas §1"}, "[6]": {"target": "T1, human CD20 on Raji B lymphoma cells", "experiment": "flow cytometry on Raji cells (binding/hCD20 receptor occupancy), A488-labeled secondary anti-human IgG Fcγ Ab, MFI against concentration, 5PL fit", "description": "The experiment was carried out by detection of bound unlabeled anti-hCD20 Abs using A488-labeled secondary anti-human IgG Fcγ Ab. Median fluorescence values from flow cytometry were obtained using FlowJo software. EC₅₀ values were generated from an asymmetric sigmoidal 5PL fit using GraphPad Prism. Data are from one of two independent, representative experiments. […] All statistical analyses were by unpaired t test."}}, "data": [{"binder": "B1", "values": [{"measurement": "ADCC signaling, ADCC reporter bioassay (FcgRIIIa V158 Jurkat pseudoeffector cells, Raji targets; fold over Rituximab)", "setting": "[1]", "value": "> 100 fold relative to Rituximab"}, {"measurement": "target cell lysis, PBMC ADCC bioassay on Raji cells (fold over Rituximab)", "setting": "[1]", "value": "~10 fold relative to Rituximab"}, {"measurement": "binding result", "setting": "[2]", "value": "no binding"}, {"measurement": "EC50", "setting": "[3]", "value": 5.7, "unit": "µg/mL"}, {"measurement": "MFI at 16.7 µg/mL", "setting": "[4]", "value": 19000}, {"measurement": "EC50", "setting": "[5]", "value": 3.2, "unit": "µg/mL"}]}, {"binder": "B2", "values": [{"measurement": "ADCC signaling, ADCC reporter bioassay (FcgRIIIa V158 Jurkat pseudoeffector cells, Raji targets; fold over Rituximab)", "setting": "[1]", "value": "> 100 fold relative to Rituximab"}, {"measurement": "target cell lysis, PBMC ADCC bioassay on Raji cells (fold over Rituximab)", "setting": "[1]", "value": "~10 fold relative to Rituximab"}, {"measurement": "EC50", "setting": "[3]", "value": 2.5, "unit": "µg/mL"}, {"measurement": "MFI at 16.7 µg/mL", "setting": "[4]", "value": 20000}, {"measurement": "EC50", "setting": "[5]", "value": 1.8, "unit": "µg/mL"}]}, {"binder": "B3", "values": [{"measurement": "EC50", "setting": "[6]", "value": 3.5, "unit": "µg/mL"}]}, {"binder": "B4", "values": [{"measurement": "EC50", "setting": "[3]", "value": 5.6, "unit": "µg/mL"}, {"measurement": "MFI at 16.7 µg/mL", "setting": "[4]", "value": 14000}, {"measurement": "EC50", "setting": "[5]", "value": 4.5, "unit": "µg/mL"}, {"measurement": "EC50", "setting": "[6]", "value": 4.5, "unit": "µg/mL"}]}, {"binder": "B5", "values": [{"measurement": "ADCC signaling, ADCC reporter bioassay (FcgRIIIa V158 Jurkat pseudoeffector cells, Raji targets; fold over Rituximab)", "setting": "[1]", "value": "> 100 fold relative to Rituximab"}, {"measurement": "target cell lysis, PBMC ADCC bioassay on Raji cells (fold over Rituximab)", "setting": "[1]", "value": "~10 fold relative to Rituximab"}, {"measurement": "binding result", "setting": "[2]", "value": "no binding"}, {"measurement": "EC50", "setting": "[3]", "value": 7.3, "unit": "µg/mL"}, {"measurement": "MFI at 16.7 µg/mL", "setting": "[4]", "value": 18000}, {"measurement": "EC50", "setting": "[5]", "value": 5.9, "unit": "µg/mL"}]}, {"binder": "B6", "values": [{"measurement": "ADCC signaling, ADCC reporter bioassay (FcgRIIIa V158 Jurkat pseudoeffector cells, Raji targets; fold over Rituximab)", "setting": "[1]", "value": "> 100 fold relative to Rituximab"}, {"measurement": "target cell lysis, PBMC ADCC bioassay on Raji cells (fold over Rituximab)", "setting": "[1]", "value": "~10 fold relative to Rituximab"}, {"measurement": "binding result", "setting": "[2]", "value": "no binding"}, {"measurement": "EC50", "setting": "[3]", "value": 2, "unit": "µg/mL"}, {"measurement": "MFI at 16.7 µg/mL", "setting": "[4]", "value": 21000}, {"measurement": "EC50", "setting": "[5]", "value": 2, "unit": "µg/mL"}]}]}
